Experimental data: patent US20190352343A1 (AUCKLAND UNISERVICES, published 2019)

Tests used:
[1] = biological target: Cpe0147^439-563 truncated protein domain (Clostridium perfringens); assay: SDS-PAGE, ester bond ligation in the presence of glycerol
[2] = biological target: Cpe0147^439-563 truncated protein domain (Clostridium perfringens); assay: SDS-PAGE, ester bond ligation in the presence of calcium

**Q.** Which percent of protein converted (ester bond formed) [1] does the source give for Cpe0147^565-587 synthetic peptide here?
**A.** 70%

**Q.** And the percent of protein converted (ester bond formed) [2]?
**A.** 40%
